Reference: the nanobody polyreactivity screen of Harvey et al. (2022)

Assay: yeast display, Sf9 membrane polyspecificity reagent, FACS + sequencing; frameworks hold sequencing errors
Summary of the method: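 Polyreactivity labels are assigned by the sorting gate from which each nanobody was recovered. The gates were low and high (top ~1%), set on anti-HA fluorescence for expression and streptavidin fluorescence for reagent binding. Before sorting, galactose-induced (36–48 hours) yeast display cells were stained for 1 hour at 4 °C with 10% biotinylated, detergent-solubilized Sf9 membrane reagent.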

Sequence	polyreactivity (PSR sort gate)
QDQLVESGGGLVQAGGSLRLSCAASGRIFPYNAMGWYRQAPGKERELVAGISRTGGSTYYADSVKGRFTISRDNAKNTVYLQMNSLKPEDTAVYYCAARPGAHPDRLDYWGQGTQVTVSS	low polyreactivity
QVQLVESGGGLIQAVRSHRLSFAASGSTFRRYAMRWYRQEPGKEREISTSDGSTYYADSVKGRFTISRENAKNTVYLQMNSLKPEDTAVYYCAADGYRKLIEDITDDYCGQGTQVTVSS	low polyreactivity
QVQLVESGGGLVQAGGSLRLSSAASGSILTPNAMGWYRQAPGKERELVAAINYSGGSTYYADSVKGRFTISRDTAKNTVYLQMNSLKPEDTAVYYCAVPYWYGRGHCYWGQGTQVTVSS	low polyreactivity
QVQLVESGGGLVQAGGSLRLSCAASGSTLNLYAMGWYRQAPGKEREVVAGITGGGSSTYYADSVKGRFTISRDNAKNTVYLQMNSLKPEDTAVYYCNVEPGYYYYRHWVAYSHGYGYWGQGTQVTVSS	low polyreactivity
QVQLVESGGGLVQAGGSLRLSCAASGRIFGYYVMGWYRQAPGKERELVAAISRSGGSTYYADSVKGRFTISRDNAKNTVYLEMNSLKPEDTAVYYCANYSPRYPNYDYWGQGTQVTVSS	high polyreactivity
QVQLVESGGGLVQAGGSLRLSSAASGSTFYSYAMRWYRQAPGKERELVAAINWDGVSTYYADSVKGRFSISRDNAMNTVYLQMNSLKPEDTAVYYCAADLFSGYRISGTFYYWGQGTQVTVSS	low polyreactivity
QVQLVESGGGLVQAGGSLRLSCAASGSIFSHNAMGWYRQAPGKERELVAAITGIVGSTYYADSVKGRFTISRDTAKNTVYLQMNSLNPEDTAVYYCAADNPVPEGSRTFEYWGQGTQVTVSS	low polyreactivity
QDQLVESGGGLVQAGGSLRLSCAASGRIFDRYAMGWYRQAPGKERELVAAISGRTGSTYYADSVKGRFTISRDNAKNTVYLQMNSLKPEDTAVYYCAKRSYWDGVRYDYWGQGTQVTVSS	high polyreactivity
QVQLVESWGGLVQAGGSLRLSCAASGITFLRNTMGWYRQAPGKERELVAAISRGGSTYYADSVKGRFTISRDNAKNTVFLQMKSLKPEDTAVYYCNAPSYVQATDYDYWGQGTQVTVSS	high polyreactivity
QVQLVESGGGLVQAGGSLRLICAASGFIFYPYAMGWYRQAPGKERELVAVITSGGRTYYADSVKGRFTISRDNAKNTVYLQMNSLKPEDTAVYYCNADTFQWWDIADVYVIVKYGYWGQGTQVTVSS	low polyreactivity
QVQVESGGGLVQAGGSLRLSCGASGSIIDQYVMGWYRQAPGKERELVAAISRGGRTYYADSVKGRFTISRDNAKNTVYLQMNSLNPEDTAVYYCATGYGPYLGRPHLTLYYYWGQGTQVTVSS	low polyreactivity
QVQLVESGGGLVQAGGSLRLSCAASGRIFSRYALGWYSPEPGKERELVAAIRSNGGRTYYADSVKGRFTISRDNAKNTVYLQMNSLKPEDTAVYYCAAAGGGKVSYRDYDYWGQGTQVTVSS	high polyreactivity
QVQLVESGGGLVQAGGSLRLSCAASGFIFSYYVMGWYRQAPGKERELVAGISWNGGRTYYADSVKGRFTISRDNAKNTVYFQMNSLKPEDTAVYYCAKDPYSKRRASSGYDYWGQGTQVTVSS	low polyreactivity
QVQLVESGGGLVQAGGSLRLSCAASGSTFYYYTMGWYRQAPGKEREFVADITNRGGSTYYADSVKGRFTISRDNAKNTVYLQMNSLKPEDTAVYYCAARFSPWYWAGDYDYWGQGTQVTVSS	high polyreactivity
QVQLVESGGGLVQAGGSLRLSCAASGSIFQFYAMGWYRQAPGKERELVAAITGDGSTDYADSVKGRFTISRDNAKNTVYLQMNSLKPEDTAVYYCAADLWRYLGWYYIYHYDYWGQGTQVTVSS	low polyreactivity
QVQLVESGGGLVQAGGSLRLSCAASGLTILPNAMGWYRPAPGKERELVAAISWGDGNTYYADSVKGRFTISRDNAKNTVYLQMNSLKPEDTAVYYCAADVIKSRTYDYWGQGTQVTVSS	low polyreactivity
QEQLQESGGGLVQAGGSLRQICAASGSNTPWSYMGRYRQAPGKEREFVASINAGTNTYYADSAKGRITISRDNAKITVYLQMNSLKPEDTAVYYCAARPDGDRLFSYWGQGTQVTVSS	low polyreactivity
QVQLVESRGGLVQAGGSLRLSCAASGITFPRYAMGWYRPAPGKERELVARITSGGRTNYADSVKGRFTISRDNAKNTVYLQMNSLKPEDTAFYYCNAVAQSGRYDYWGQGTQVTVSS	high polyreactivity
QVQLVESGGGLVQAGGSLRLSCAASGSIFRWYAMGWYRQAPGKERELVASITRSGGRTYYADSVKGRFTISRDNAKNTVYLQMNSLKPEDTAVYYCAADYYAYWYRYRYYYWGQGTQVTVSS	high polyreactivity
QVQLVESGGGLVQAGGSLRFSCAASGRIFGRYAMGWYRQAPGKERELDAAISYSGGSTYYADSVKGRFTISRDNAKNTVYLQMNSLKPEDTAVYYCAVVVYQYTPSQRFYYWGQGTQVTVSS	high polyreactivity
QVQLVESGGGLVQAGGSLRLSCAASGITFDLYAMGWYRQAPGKERELVAAISISSTSTYYADSVKGRFTISRDNAKNTVYLQMNSLKPEDTAVYYCNAVPSSKTFWFDYWGQGTQVTVSS	low polyreactivity
QVQLVESGGGLVQAGGSLRLSCAASGSIFSGNAMGWYRPAPGKERELVAAISSNGGRTYYADSVKGRFTISRDNAKNTVYLQMNSLKPEDTAVYYCAADYGKRRYGYYYWGQGTQVTVSS	high polyreactivity

Sequence	polyreactivity (PSR sort gate)
QLQLVESGGGLVQAGGSLRLICAASGLTFVHYTMGWYRQAPGKERELVAAISWNGASTYYADSVKGRFTISRDNAKNTVDIQMNSLKPEDTAVYYCAAGYAQPRYYTDYYWGEGTQVTVSS	high polyreactivity
QVQLVESGRGLVQAGGSLRLSCAASGSTFPPSAMGWYRQAPGKERELVAAIDVSGGTTFYADSVKGRFTISRDNAKNTVYLQMNSLKPEDTAVYYCAIGSVSARFEYWGQGTQVTVSS	low polyreactivity
QVQLVESGGGLVQAGGSLRLSCAASGSTRRYAMGWYRQAPGKERELVAAISSRGGSTYYADSVKGRFTISRDNAKNTVYLQMNSLKPEDTAVYYCAARTTRGPTFGYWGQGTQVTVSS	high polyreactivity
QVQLEESGGGLVQAGGSLRLSCAASGSNFYLNDMGWYRQAPGKEREFVAAIDSRGTSTYYADSVKGRFTISRDNAKNTVYLQMNSLNPEDTAVYYCAADSYALEYDYWGQGTQVTVSS	low polyreactivity
QVQLVESGGGLVQAGGSLRLSCAASGRTFANNAMGWYRQAPGKERELVAAISSSDDSTYYADSVKGRFTISRDNAKNTVYLQMNILKPEDTAVYYCAAPYPGHQSRFGYESWGQGTQVTVSS	low polyreactivity
QVQLVESGGGLVQAGGSLRLSCAASGFTFFLYAMGWYRQAPGKERELVARISSGRDTYYADSVKGRFTISRDNAKKTVYLQMNSLKPEDTAVYYCAVAFWFGYRYYYWGQGTQVTVSS	high polyreactivity
QVQLVESGGGLVQAGGSLRLSCAASGSIFTVNAMGWYRQAPGKERELVAAISSGGSTHYADSVKGRFTISRDNAKNTVYLQMNSLKPEDTAVYYCAAVYVPYYGYSTRYDYWGQGTQVTVSS	low polyreactivity
QVQLVESGGGLVQAGGSLRLSCAASGRIFNRNAMGWYRQAPGKERELVAAISSSGGSTYYADSVKGRFTISRDTAKNTVYLQMNSLKPEDTAVYYCAAVTQSYGYYYWGQGTQVTVSS	high polyreactivity
QVQLVESGGGLVQAGGSLRLSCAASGFTFIRYAMGWYRQAPGKEREFVAAISWRVGITYYADSVKGRFTMSRDNAKNTVYLQMNSLKPEDTAVYYCARDYRNPPFAYEYWGQGTQVTVSS	low polyreactivity
QVQLVESGGGLVQAGGSLRLSCAASGLIFWGYTMGWYRPAPGKERELVASITTSGSTYYADSVKGRFTISRDNAKNTVYLQMNSLKPEDTAVYYCAVDNYYTPWYPYLGYDSWGQGTQVTVSS	low polyreactivity
QVHLVESGGGLVQAGGSLRLSCYASGRIFRYYAMGWYRQPPGKERELVAVINCSGGSTYYAVSVKGRFTISRDNAKNSVYLQMNSLKPEDTAVYYCYVYSVYPQFNYWGQGTQVTVSS	high polyreactivity
QVQLVESGGGLVQAGGSLRLSCAASGSIFYSYAMGWYRQAPGKERELVADITITGSTYYADSVKGRFTISRDNAKNTVYLQMNSLKPEDTAVYYCDAVLAPGGYDYWGQGTQVTVSS	low polyreactivity
QVQLVESGGGLVQAGGSLRLSCAASGSIFSKYAMGWYRQAAGKERELVAGISCSGGSTYYADSVNGRFTISRDNAQITVYLQINSLKPEDTAVYYCAVGIPYRGRQGYYGYYSYDYWGQGTHVTVSS	high polyreactivity
QVQLVESGGGLVQAGGSLRLSCAASGRIFSPYAMGWYRQATGKERELVAAIDWDGGGTYYADSVKGRFTISRDNAKNTVYLQMNSLKPEDTAVYYCAAETDLANGTSPSDYWGQGTQVTVSS	low polyreactivity
QVQLVESGGGLVQAGGSLRLSCAASGSIFTYNAMGWYRPAPGKERELVAAINTSGSTNYADSVKGRFTISRDNAKNTVYLQMNSLKPEDTAVYYCAAGIVVTGYDYWGQGTQVTVSS	low polyreactivity
QVQLVESGGGLVQAGGSLRLSCAASGIIFARNAMGWYRQAPGKERELVATISRNGGRTYYADSVKGRFTISRDNAKNTVYLQMNSLKPEDTAVYYCAAGFYLRAVWMDYWGQGTQVTVSS	high polyreactivity
QDPHVESGGGIVQAGGSISLRCSASGSTYAKKAMVRYRKAPGKEKELFADISASGGSTYYADSVKGRFTISRDIAKNSVYLQMYSLKPEETSVYYWAKSSYLTRGSRYDYWGQGTQVTLSS	low polyreactivity
QVQLVESGGGLVQAGGSLRLSCAASGRTFYYYAMGWYRQAPGKERELVATITSSGGSTYYADSVKGRFTISRDNAKNTVYLQINSLIPEDTAVYYCARTYTYKGGNTHSRWYYYWGQGTHVTVSS	high polyreactivity
QVQLVESGGGLVQAGGSLRLSCAASGSIFRGYDMGWYRQPPGKERELVAAISRSGGITYYADSVKGRFTISRDNAKNTVYLNMNSLKPEVTAVYYCAASRAGGYYGKGYSWGQGTQVTVSS	high polyreactivity
QVQLVESGGGLVQAGGSLRLSCAACGSTFPYNAMGWYRQAPGKERELVAAISGNGDSTFYADSVKGRFTISRDNAKNTVYLQMNSLKPEDTAVYYCAAEQYYGYYFYGYWGQGTQVTVSS	high polyreactivity
QVQLVESGGGLVQAGGSLRLSCAASGNTFRYYAMGWYRQAPGKERDLVAAISESGGRTYYADSVKGRFTISRDNAKKTVYLQMNSLKPEDTAFYYCAASRWARTWWYGYNYWGQGTQVTVSS	high polyreactivity
